Experimental findings from patent publication US20180066068A9, “ANTI-PSYK ANTIBODY MOLECULES AND USE OF SAME FOR SYK-TARGETED THERAPY” (Millennium Pharmaceuticals, Inc., priority 2014, published 2018) are described below.

By EC50 is commonly meant the midpoint of the concentration-response curve. High values mean lower potency in that assay, low ones higher potency in that assay.

Assay [1] concerns pSYK, pBLNK, cleaved caspase 3 in PHTX-95L primary DLBCL xenografts. In words: Pharmacodynamics by IHC in PHTX-95L xenografts. Type of assay: in vivo, NOD SCID mice.
Assay [2] deals with pSYK in TMD8 lymphoma cell line xenograft. The assay can be described thus: Pharmacodynamics by IHC in TMD8 xenografts. The class given is in vivo, mice. The conditions noted are these: single oral dose 120 mg/kg, two hours after dosing; MIL81-1-8 hybridoma and molecular clone antibodies.
In assay [3] the test system is DLBCL cell lines. The assay can be described thus: Inhibition of cellular proliferation. The class given is cell-based. To be noted: expanded set of relevant models; 72 hours of treatment, DLBCL cell lines (FIG. 21).
For assay [4], the target named is T1, pSYK in human DLBCL biopsies (Homo sapiens, UniProt P43405).
T1 construct: from tissue; host or cells: FFPE human DLBCL biopsies; one normal lymph node
The assay can be described thus: IHC of human DLBCL biopsies, AMP HQ versus Leica IHC. The class given is binding. How it is done:
Antibodies were incubated with OmniMap goat anti-rabbit HRP secondary antibody (Ventana Medical Systems) for 16 minutes. A Discovery AMP TSA HQ kit (Ventana Medical Systems) was applied for 16 minutes followed by 16 minute incubation with the Discovery anti-HQ HRP (Ventana Medical Systems) antibody. The staining was then developed with the 3,3′-diaminobexidine (DAB) substrate map system. Slides were counterstained with hematoxylin and imaged using the Aperio whole slide scanning system (XT). A comparative staining was obtained with the MIL81-1-8 3H3/3L2 antibody using an automated protocol on a Leica automated stainer. pSYK protein levels in Formalin-Fixed, Paraffin-Embedded tissues were incubated with MIL81-1-8 3H3/3L2 antibody ([…]) for 30 minutes on the Leica Microsystems (Wetzlar, Germany) BOND RX automated stainer. Antibodies were incubated with a rabbit anti-goat HRP secondary antibody (Leica Laboratories) and developed with the 3,3′-diaminobexidine (DAB) substrate map system. Slides were counterstained with hematoxylin and imaged using the Aperio whole slide scanning system (XT). The staining of the AMP HQ and the Leica IHC were compared to determine staining specificity. […] Each was scored either positive (membrane stain was found) or negative (no membrane staining was found). […]

Assay [5] addresses T2, SYK in lysates of WSU-DLCL2 cells (Homo sapiens, UniProt P43405).
T2 construct: endogenous in cells; host or cells: WSU-DLCL2 cells, unstimulated or stimulated (BCR crosslinking or pervanadate)
In words: Western blot of cell lysates, WSU-DLCL2. The class given is binding. The conditions noted are these: lysate of stimulated cells. As for the experimental part: Additional cell culture material was used to screen antibodies by utilizing WSU-DLCL2 (human diffuse large B-cell lymphoma) cells that were stimulated through crosslinking the B-cell receptor (AffiniPure F(ab′)^2 fragment of goat anti-human Ig, cat #109-006-127, JacksonImmuno Research Laboratories, Inc., West Grove, Pa.) or with pervanadate treatment (25 μL into 1 mL of cells of the following; 50 μL Na3VO4, 5.5 μL 9.1M H2O2(31%), 944.5 μl H2O) over a 60 min time course. At each time point cells were collected and lysed in MPER (Thermo: 7850) containing both a protease inhibitor cocktail I (Calbiochem:539131-10VL) and 1× HALT a generic protein phosphatase inhibitor cocktail (Thermo: 78428). Also LY10 (OCI-LY10) cells were used as lysates without or with stimulation with cross-linking or pervanadate as described above. Ly10 cells have weak SYK expression compared to WSUDLCL2 cells (FIG. 1). […] (BLNK was detected in every sample by CST 3575 and SC15345 antibodies, with the pBLNK detection paralleling the pSYK detection in the crosslinked and pervanadate-treated cells.) One conclusion of this study extended the nucleic acid results, and found weak pSYK signal in the Ly10 crosslinked sample. […]
(In general: A western blot detects proteins with antibodies after separation by electrophoresis.)

Assay [6] has as its target T3, GST-pSYK (IVK) (Homo sapiens, UniProt P43405).
T3 construct: made in house; host or cells: baculovirus-infected Sf9 cells
In words: Western blot on autophosphorylated GST-pSYK (IVK). The conditions noted are these: GST-tagged recombinant SYK, compared with untreated. Type of assay: binding. How it is done: GST-hSYK was expressed in baculovirus-infected Sf9 cells and affinity-purified by glutathione Sepharose affinity resin. For in vitro kinase (IVK) pSYK, isolated GST-SYK was incubated in 1 mM ATP, 1 mM MgCl2 for 1 hr at room temperature to allow autophosphorylation to occur. The reaction was stopped by the addition of 5 mM EDTA and a small aliquot removed for treatment with 0.1% SDS, stored […] and used for AlphaScreen analysis or stored at −80° without further purification. This sample was later used at Epitomics for screening assays of hybridoma. An aliquot of the sample was analyzed by SDS-PAGE for Western blotting using anti-SYK (Cell Signaling Technologies #2712) and Epitomics 2175-1. The majority of the recombinant material was confirmed to be phosphorylated at Y525/526.
(§1) Western blots were prepared from SDS-PAGE gels of GST-pSYK (IVK), and phosphatase-treated GST-pSYK. Each hybridoma multiclone supernatant was tested for binding to the blots. […] By this method, multiclone hybridoma supernatants with good binding of phosphorylated relative to dephosphorylated pSYK were 1, 2, 19, 24, 39, 49, 52, 53, 55, 59, 63, 70, 81, 84, 85, 87, 98 and 99.

Assay [7] deals with T4, pSYK in DLBCL patient samples and normal lymph node (Homo sapiens, UniProt P43405).
T4 construct: from tissue; host or cells: FFPE human DLBCL biopsies; one normal lymph node
The assay can be described thus: IHC of molecular clone versus hybridoma antibody on human biopsies. Type of assay: binding. How it is done: The molecular clone antibody also was assessed by IHC. The immunohistochemical staining of antibody purified from MIL81-1-8 hybridoma supernatant as described above was compared to staining by MIL81-1-8 3H3/3L2 clone antibody purified from culture supernatant of transiently co-transfected HEK293 cells (also one-step purification-protein A chromatography followed by buffer exchange).
Both the molecular clone and the hybridoma antibodies stained HBL1 to a moderate extent and strongly stained PHTX95L untreated samples. […] The molecular clone antibody was compared to the hybridoma antibody for staining biopsies of human tissues. There were three DLBCL patient samples and one normal lymph node sample (non-tumorigenic) from a patient. […] If nuclear staining would be considered off-target and lead to a determination of absence of pSYK, then a version of MIL81-1-8, with less nuclear relative to cytoplasmic or membranous staining could lead to fewer false negative results.

The target in assay [8] is T5, phosphatase-treated GST-pSYK (de-pSYK) (Homo sapiens, UniProt P43405).
T5 construct: made in house; host or cells: baculovirus-infected Sf9 cells
The assay can be described thus: Western blot on phosphatase-treated GST-pSYK. The class given is binding. To be noted: GST-tagged recombinant SYK. How it is done:
Some of the autophosphorylated GST-pSYK was treated with T-cell protein phosphatase (TC-PTP, New England Biolabs), a tyrosine-specific phosphatase, for confirming specificity of antibodies to pSYK.
as §1

Setting [9] is: single dose 120 mg/kg, IHC of tumors harvested over time.

For `Cn1cc(-c2nc(N[C@@H]3CCCC[C@@H]3N)c(F)c3c2C(=O)NC3)cn1` [Compound A, 6-((1R,2S)-2-Aminocyclohexylamino)-7-fluoro-4-(1-methyl-1H-pyrazol-4-yl)-1H-pyrrolo[3,4-c]pyridin-3(2H)-one], in assay [1] (setting [9]), the “cleaved caspase 3 expression” value was “increase in expression”, the “pBLNK (pBLNK65) expression time course” value is recorded as “Time dependent inhibition” and the “pSYK (pSYK525) expression time course” value was “Time dependent inhibition”. The “pSYK stain in PHTX95L xenograft after treatment” value in assay [1] (single oral dose 120 mg/kg, two hours after dosing, MIL81-1-8 hybridoma and molecular clone antibodies) is reported as “diminished”. Moreover, the “pSYK stain in TMD8 xenograft after treatment” value in assay [2] was “diminished”. Besides, in assay [3], the EC50 was 0.025 to 4 µM.

B1: MIL81-1-8 3H3/3L2: recombinant molecular clone of MIL81-1-8; heavy chain SEQ ID NO:4, light chain SEQ ID NO:6, from transfected HEK293 cells (antibody)
heavy: METGLRWLLLVAVLKGVQCQSVEESGGRLVTPGTPLTLTCTVSGIDLNSYIMSWVRQAPGKGLEWIGIISRRGNTYYASWPKGRFTISKTSTTVDLKITSPTTEDTATYFCARAYLYTSGTMSVWGPGTLVTVSSGQPKAPSVFPLAPCCGDTPSSTVTLGCLVKGYLPEPVTVTWNSGTLTNGVRTFPSVRQSSGLYSLSSVVSVTSSSQPVTCNVAHPATNTKVDKTVAPSTCSKPTCPPPELLGGPSVFIFPPKPKDTLMISRTPEVTCVVVDVSQDDPEVQFTWYINNEQVRTARPPLREQQFNSTIRVVSTLPIAHQDWLRGKEFKCKVHNKALPAPIEKTISKARGQPLEPKVYTMGPPREELSSRSVSLTCMINGFYPSDISVEWEKNGKAEDNYKTTPAVLDSDGSYFLYSKLSVPTSEWQRGDVFTCSVMHEALHNHYTQKSISRSPGK
light: MDTRAPTQLLGLLLLWLPGARCADIVMTQTPSPVEAAVGGTVTIKCQASESISSYLSWYQQKPGQPPKLLIYRASTLVSGVPSRFKGSGSGTDFTLTISDLECADAATYYCQHTYFGSDYVGGFGGGTEVVVKGDPVAPTVLIFPPAADQVATGTVTIVCVANKYFPDVTVTWEVDGTTQTTGIENSKTPQNSADCTYNLSSTLTLTSTQYNSHKEYTCKVTQGTTSVVQSFNRGDC
As to B1, the “Samples deemed positive (membrane stain) out of 82” value worked out at 34 in assay [4] (AMP HQ amplified IHC, 1:10,000 dilution) and 24 in assay [4] (Leica IHC, 1:3200 dilution). In addition, in assay [5], the “Binding to SYK on western blot, stimulated WSU-DLCL2 cells” value is recorded as “stained the band”. In addition, in assay [6], the “Western blot staining of IVK-treated recombinant SYK” value is “stained the IVK-treated SYK band more intensely than the untreated SYK band”. Also, the “Overall IHC comparison with hybridoma antibody” value in assay [7] (cell pellets, xenografts and human biopsies) was “slightly better than the hybridoma antibody”. Further, the “Nuclear staining intensity compared to hybridoma antibody” value in assay [7] (human biopsies) is given as “remarkably reduced”. Also, the “Western blot staining of phosphatase-treated recombinant SYK” value in assay [8] is “slightly stained”.
